# Data published in a protein production outcome set (Wang et al. 2014).
# Assay: label from the status in PepcDB records
row,Sequence,protein production
1,VILKKIFIALIALVVIINTVSFTAVSASTPTWLEQTMNSNEPFIKEIEKETGKTRANITQTDLEAITALRVTGASDIPTNIDMLTHLTTLEVKSGTLSSVSNSVGNLKELKILVLNDNNLSTFPTIVFQLPKLEELQVSGGTIEEIPATITNMASHLKFLGILNNHLVKVPDAIFTTNWTNATGGDLDLMAAGNQIVTNIPANYISQFNNGNNLLEFYDNNYQKQDQLTTTPGYTIDVPVGTDFNQLTPDKTKLALTSGRTLLAQHEFEYYDDGSSSLIHNGVAAAPGQATIFIKSKFSTQSNKFARTQVTVNIIALNGGPITVKHEDTKGQELAPPVILNGKDGDPYTTTQKTFPGYTLVATPANQNGTFTMNPATVNYVYSANDYKLTSTFKDAQGQELKAPVVDTKDYHIQDNYTTTAATIPGYSLVSTPANQNGTFGAGNVTVNYVYKKDDYTLTSTYKDTNGQELKAPVVDATTYHYQDTYTTTAAVFPGYTLVATPTNATGTFGSSNITVNYVYQANGYQLTSTFKDQQGKTIAPDDVDAKTYHVNDPYTTTAKTIPGYTLVTTPANNQGNFGTSDITVDYVYKAEDYTLTSTYKDAQGKELKQPVVDSKKYHIQDNYSTSAAAIPGYTLVATPANETGTFHTSDVTVNYVYKLTDLKLTSTYKDAQGTELKAPVVDSKTYHIQDNYATTAAVIPGYTLVATPANQSGTFGSTDIQVNYVYQAVAYKLTSTYKDQQGNDLALPKVDTKTYHIQDGYTTSDIAIPGYTLVAAPTNQTGTFGASDVTVNYVYKANDYTLTSTYKDAQGKELKTPVIDSQKYHINDTYTTTGATIPGYTLVAAPANQSGTFGAANVTVNYVYKADDYTLTSTYKDANGKELKAPVVDSKTYHTKDNYSTSAATIPGYTLVAVPANQTGTFNTSNVTVNYVYKANEYTLTSTFKNVQGTELKPAIVKKGFIIKDGYATSGVTIPGYTLVATPSNKKGTFGASNVTVNYVYKANGYALITTYKDTQGKDLKPLAIDTKIYNINDPYTATALNIPGYTLTTTPANEKGVFGASDETVNYVYKANDYTLTTTYKDANGKELQAPKVDAKTYHIQDTYKTTAAVIPGYTLVATPKNDQGAFGANNVTVNYVYQTNDYTLTSTFKDAQGNELKAADVDAQKYHIHDTYTSKAAVIPGYTLEKTPTNETGTFNASDIQVNYVYKANDYQLTSTFKDQQGNEIALPTVDAKTYHIHDAYTTKARLIPGYSLVAAPKNQIGAFGTSDVTVNYVYKKDAIIKPITPAKPTILTIKTPASKVIKTKVVKQTLPKTGDDDAGLLNLLRLIGLVLILGVFLAVGSKKLR,failed
2,VLKQGYMMKKGHRRKNWTERWFVLKPNIISYYVSEDLKDKKGDILLDENCCVESLPDKDGKKCLFLVKCFDKTFEISASDKKKKQEWIQAIHSTIHLLKLGS,not failed
3,VLMDEGAVLTLAADLSSATLDISKQWSNVFNILRENDFEPKFLCEVKLAFKCDGEIKTFSDLQSLRKFASQKSSMKELLKDVLPQKE,not failed
4,VLYYKDFKIGLGKNQKENIKLLQDARANDLWMHVRNIPGSHLIVFCQKNAPKDDVIMELAKMLIKMQKDAFNSYEIDYTQRKFVKIIKGANVIYSKYRTISLKDT,failed
5,VMVFISSSLNSFRSEKRYSRSLTIAEFKCKLELVVGSPASCMELELYGADDKFYSKLDQEDALLGSYPVDDGCSIHVIDHSG,not failed
6,VNEIVVNPNATLDWQLALRQAAGKTDLARDMLQMLLDFLPEVRNKVEEQLVGENPEGLVDLIHKLHGSCGYSGVPRMKNLCQLIEQQLRSGTKEEDLEPELLELLDEMDNVAREASKILG,not failed
7,VNELLHLAPNVWPRNTTRDEVGVVCIAGIPLTQLAQEYGTPLFVIDEDDFRSRCRETAAAFGSGANVHYAAKAFLCSEVARWISEEGLCLDVCTGGELAVALHASFPPERITLHGNNKSVSELTAAVKAGVGHIVVDSMTEIERLDAIAGEAGIVQDVLVRLTVGVEAHTHEFISTAHEDQKFGLSVASGAAMAAVRRVFATDHLRLVGLHSHIGSQIFDVDGFELAAHRVIGLLRDVVGEFGPEKTAQIATVDLGGGLGISYLPSDDPPPIAELAAKLGTIVSDESTAVGLPTPKLVVEPGRAIAGPGTITLYEVGTVKDVDVSATAHRRYVSVDGGMSDNIRTALYGAQYDVRLVSRVSDAPPVPARLVGKHCESGDIIVRDTWVPDDIRPGDLVAVAATGAYCYSLSSRYNMVGRPAVVAVHAGNARLVLRRETVDDLLSLEVR,not failed
8,VNFEVKDQTLMMELVPERLRGETATFDIEADGKVYVEKGRRVTARHIRQLEKDGVNFIEVPVEYIVGKVSAKDYVNEATGELIITANQEISLEALANLSQAG,not failed
9,VNNTKVTNSEESLSVVDDFVKSVWPTAKQAASLIGLDPKLLVAQAALETGWGRFVTRDADGSSSNNLFNIKTGSHSEVESIQVKTTEYIADTPIKINASFRKYPSIEHSFHDYVSLIKGSERYQMALANAENPEIFVSELNKAGYATDPNYSNKILSIYHGDE,failed
10,VQPLATQCFQLSNMFNPQTEEEVGWDTEIKDDVIEECNKHGGVIHIYVDKNSAQGNVYVKCPSIAAAIAAVNALHGRWFAGKMITAAYVPLPTYHNLFPDSMTATQLLVPSRR,not failed
11,VRQKGIDIIFMLDISNSMLARDTAPDRLTHAKTELLQISRRLGDGRKALLLFAGTPVVQCPLTDDEEDFEILLDMAAPELITTQGTDYRRAFDAALKLTNSGGELSSNETVLVLASDGEDHGNDLGDIATAMKTRGVHLHVIGVGGVQPVPIPMQGGPKRDQQGKIVLTSFKPEPLASLIKTAKGKFYYSRPDAPVHDAVADDIAAEAAEARW,failed
12,VRVLSYDKEKLNWLYKDPQGLVQGPFSLTQLKAWSDAEYFTKQFRVWMTGESMESAVLLTDVLRL,not failed
13,VTVTDDYLANNVDYASGFKGPLPMPPSKHIAIVACMDARLDVYRMLGIKEGEAHVIRNAGCVVTDDVIRSLAISQRLLGTREIILLHHTDCGMLTFTDDDFKRAIQDETGIRPTWSPESYPDAVEDVRQSLRRIEVNPFVTKHTSLRGFVFDVATGKLNEVTP,not failed
14,VYTLMTTRSHDQYNTTLYGLDDRYRGVFGQRRVLFMNEQDIQEAGFQADQWVDIESIYSDGLKRIVRSFKIVPYNIPRGSMAAYYPETNPLVALSSHDKYAKIPASKSIPVILHPGQAPEHFNLAAPVDPEHANG,failed
15,YATGNKKNISGSVEKITELGMNKDQITNPLEAIRGRVPGLTIQKGTNGPAALDAVRLRGTTSLTSGNDPLIIVDGVFGDLSMLTSIYPTDIESFTILKDASETAQYGSRGASGVIEITTKKGIRG,failed
16,YAYSASLRVRQLGKPFMDEFSRRTNTTVSLTCRDRLSMIHVDSSRPPEVASLRMEPGLRLPLATSAAGRAYLAATPKIERDHLLGEVAKKLGDEWPALEKSLEDSFREYEEFGFCLSLGEWDRNVNGAGVPLRLADGSIMALTCGAPSFQLSSEKLESSLAHQLVMLARDLESLGV,failed
17,YCEFLNNELRAHASDLLPTAPVPTMMLDRAWDEATLHNITQLIYDVRKDDALFRREISKPGAFDLMRKNYWDRREYSAVTLVGNETCNLAPLAELGFQIEVSQ,failed
18,YCKTIPMPDLAYSEISVIGKLIRALPEPCALHLANSSTVRYAQLFTVPPQVEICCNRGVNGIEGSLSTAIGYAAASSKLNFIIIGDLSFFYDMNALWNQNYGANIRILLLNNEGGEIFHTLPGMDKSSRSREFITAEHYTTAKGWAEERGFIYMKVTGEEELEEAMQPFTSPETRMQPMLLEVFTDKEKD,failed
19,YCKTIPMPDLAYSEISVIGKLIRALPEPCALHLANSSTVRYAQLFTVPPQVEICCNRGVNGIEGSLSTAIGYAAASSKLNFIIIGDLSFFYDMNALWNQNYGANIRILLLNNEGGEIFHTLPGMDKSSRSREFITAEHYTTAKGWAEERGFIYMKVTGEEELEEAMQPFTSPETRMQPMLLEVFTDKEKDTTLLREYYHGLKNKNE,failed
20,YDASPAYYLYTSGSTGTPKCVVLNNRATAHVLQETIDFWGINDKDIHLAATPFHHDMSIFDLMAPLSVGGTLVVPTLEEAKSAVAWAELIERYQVSIWCTVPAMVDMLLTSAEPSQLQSIRLINQGGDYVKPSVVQKLREILPNTRLISIGGPTETTIWSIWHEITSEDI,failed
21,YISAVQAGDTESFAPLVERYSDMLYALLCRLLQDEEDAADLLQDTFVKAFRHIGRFDGRSSFSTWIYRIAYNEAIDHLRRRKAYVTDRVEELPDVPDEDLEPSGEDPELLQQALDSLPAADKALLLMFYSDDLSVRDIAEVTGMSESNVKVKLHRLRTKLYKMMR,failed
22,YLASDGKTIIYVGRNNLQNEELTFKMARKEELWFHAKDIPGSHVVISGNLDPSDAVKTDAAELAAYFSQGRLSNLVQVDMIEVKKLNK,failed
23,YNPWRNPQNALERRNIVLRLMLEHKMIGDELYQLLSQRPLGVQKKGQISRKYPAFIQTLQADLRRKLGEHKISSLLGA,failed
